Measurements: the supplement of paper PMC11780869

System: Bacillus subtilis
Experiment: cleaved RNA product abundance (RNA/gDNA barcode ratio) relative to median wild-type variant (ratio to wild type); higher = more accumulation of the downstream cleavage product
Details: cleavage site: cggR-gapA (positions -7 to +36 mutated)
Procedure, shortened: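 Reporter mRNAs (truncated aprE or tetM) carrying barcoded, mutagenized RNase Y cleavage-site windows were made from oligos with a 9% error rate and integrated into the B. subtilis chromosome. Cultures grew in LB at 37°C from OD600 0.0003 to 0.3. Cleaved RNA was gel-selected, reverse transcribed and barcode-sequenced alongside genomic DNA barcodes, with UMI collapsing. Cleaved product abundance is the RNA:gDNA barcode ratio per variant, scaled to the median wild-type variant.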

[1] = experiment (reporter, strain, medium): exp 4a: truncated aprE reporter, strain BJT201 with 2% xylose (RNase J1 expressed)
[2] = experiment (reporter, strain, medium): exp 2b: truncated aprE reporter, strain BJT200
[3] = experiment (reporter, strain, medium): exp 6: tetM reporter, strain 168

Row | Sequence | cleaved RNA product abundance [1] | cleaved RNA product abundance [2] | cleaved RNA product abundance [3]
1 | ACAGACGAAGGAGCCGCAAAGAAGTTATTAAGGGATGACTAATCCCTCAAGATAAATATCTCTCACTTATTTAAA | 0.247 | – | –
2 | ACAGACGAAGGAGCCGCAAAGAAGTTATTAAGGGATGACTAATCCCTCAATATAAATATCTCTCACTTATTTAAA | 0.679 | 0.603 | 0.978
3 | ACAGACGAAGGAGCCGCAAAGAAGTTATTAAGGGATGACTAATCCCTCAATATAATTATCTCTCACTTATTTAAA | 0.282 | – | –
4 | ACAGACGAAGGAGCCGCAAAGAAGTTATTAAGGGATGACTAATCCCTCAATATATATATCTCTCACTTATTTAAA | – | 0.293 | –
5 | ACAGACGAAGGAGCCGCAAAGAAGTTATTAAGGGATGACTAATCCCTCATTATAAATATCTCTCACTTATTTAAA | 0.208 | 0.155 | –
6 | ACAGACGAAGGAGCCGCAAAGAAGTTATTAAGGGATGACTAATCCCTCTATATAAATATCTCTCACTTATTTAAA | 0.337 | – | –
7 | ACAGACGAAGGAGCCGCAAAGAAGTTATTAAGGGATGACTAATCCGTCAATATAAATATCTCTCACTTATTTAAA | 0.213 | – | –
8 | ACAGACGAAGGAGCCGCAAAGAAGTTATTAAGGGATGACTAATCCTTCAATATAAATATCTCTCACTTATTTAAA | 0.251 | – | –
9 | ACAGACGAAGGAGCCGCAAAGAAGTTATTAAGGGATGACTAATTCCTCAATATAAATATCTCTCACTTATTTAAA | 0.314 | – | –
10 | ACAGACGAAGGAGCCGCAAAGAAGTTATTAAGGGATGACTACTCCCTCAATATAAATATCTCTCACTTATTTAAA | 0.446 | – | –
11 | ACAGACGAAGGAGCCGCAAAGAAGTTATTAAGGGATGACTATTCCCTCAATATAAATATCTCTCACTTATTTAAA | 0.804 | – | –
12 | ACAGACGAAGGAGCCGCAAAGAAGTTATTAAGGGATGAGAAATCCCTCAATATAAATATCTCTCACTTATTTAAA | 0.604 | – | –
13 | ACAGACGAAGGAGCCGCAAAGAAGTTATTAAGGGATGAGTAAACCCTCAATATAAATATCTCTCACTTATTTAAA | 0.35 | – | –
14 | ACAGACGAAGGAGCCGCAAAGAAGTTATTAAGGGATGAGTAATCACTCAATATAAATATCTCTCACTTATTTAAA | 0.264 | – | –
15 | ACAGACGAAGGAGCCGCAAAGAAGTTATTAAGGGATGAGTAATCCCTCAATATAAATATCTCTCACTTATTTAAA | 0.596 | 0.484 | 0.74
16 | ACAGACGAAGGAGCCGCAAAGAAGTTATTAAGGGATGAGTAATCCCTCATTATAAATATCTCTCACTTATTTAAA | 0.185 | – | –
17 | ACAGACGAAGGAGCCGCAAAGAAGTTATTAAGGGATGAGTAATCCCTCCATATAAATATCTCTCACTTATTTAAA | 0.164 | – | –
18 | ACAGACGAAGGAGCCGCAAAGAAGTTATTAAGGGATGAGTAATCCCTTAATATAAATATCTCTCACTTATTTAAA | 0.601 | – | –
19 | ACAGACGAAGGAGCCGCAAAGAAGTTATTAAGGGATGAGTAATCCTTCAATATAAATATCTCTCACTTATTTAAA | 0.346 | – | –

Row | Sequence | cleaved RNA product abundance [1] | cleaved RNA product abundance [2] | cleaved RNA product abundance [3]
20 | ACAGACGAAGGAGCCGCAAAGAAGTTATTAAGGGATGAGTAATTCCTCAATATAAATATCTCTCACTTATTTAAA | 0.452 | – | –
21 | ACAGACGAAGGAGCCGCAAAGAAGTTATTAAGGGATGATAAATCCCTCAATATAAATATCTCTCACTTATTTAAA | 0.853 | 0.648 | –
22 | ACAGACGAAGGAGCCGCAAAGAAGTTATTAAGGGATGATAATCCCTCAATATAAATATCTCTCACTTATTTAAAG | 0.861 | – | –
23 | ACAGACGAAGGAGCCGCAAAGAAGTTATTAAGGGATGATGAATCCCTCAATATAAATATCTCTCACTTATTTAAA | 0.766 | – | –
24 | ACAGACGAAGGAGCCGCAAAGAAGTTATTAAGGGATGATTAAACCCTCAATATAAATATCTCTCACTTATTTAAA | 0.362 | – | –
25 | ACAGACGAAGGAGCCGCAAAGAAGTTATTAAGGGATGATTAATACCTCAATATAAATATCTCTCACTTATTTAAA | 0.134 | – | –
26 | ACAGACGAAGGAGCCGCAAAGAAGTTATTAAGGGATGATTAATCACTCAATATAAATATCTCTCACTTATTTAAA | – | 0.152 | –
27 | ACAGACGAAGGAGCCGCAAAGAAGTTATTAAGGGATGATTAATCCATCAATATAAATATCTCTCACTTATTTAAA | – | 0.124 | –
28 | ACAGACGAAGGAGCCGCAAAGAAGTTATTAAGGGATGATTAATCCCACAATATAAATATCTCTCACTTATTTAAA | 0.276 | – | –
29 | ACAGACGAAGGAGCCGCAAAGAAGTTATTAAGGGATGATTAATCCCGCAATATAAATATCTCTCACTTATTTAAA | 0.0868 | – | –
30 | ACAGACGAAGGAGCCGCAAAGAAGTTATTAAGGGATGATTAATCCCTAAATATAAATATCTCTCACTTATTTAAA | 0.599 | – | –
31 | ACAGACGAAGGAGCCGCAAAGAAGTTATTAAGGGATGATTAATCCCTCAAAATAAATATCTCTCACTTATTTAAA | 0.282 | 0.294 | –
32 | ACAGACGAAGGAGCCGCAAAGAAGTTATTAAGGGATGATTAATCCCTCAAGATAAATATCTCTCACTTATTTAAA | 0.304 | – | –
33 | ACAGACGAAGGAGCCGCAAAGAAGTTATTAAGGGATGATTAATCCCTCAATAGAAATATCTCTCACTTATTTAAA | 0.0935 | – | –
34 | ACAGACGAAGGAGCCGCAAAGAAGTTATTAAGGGATGATTAATCCCTCAATATAAACATCTCTCACTTATTTAAA | 0.559 | – | –
35 | ACAGACGAAGGAGCCGCAAAGAAGTTATTAAGGGATGATTAATCCCTCAATATAAATATCTCTCACTTATTTAAA | 0.844 | 0.75 | 0.94
36 | ACAGACGAAGGAGCCGCAAAGAAGTTATTAAGGGATGATTAATCCCTCAATATCAATATCTCTCACTTATTTAAA | 0.0525 | – | –
37 | ACAGACGAAGGAGCCGCAAAGAAGTTATTAAGGGATGATTAATCCCTCAATATTAATATCTCTCACTTATTTAAA | – | 0.164 | –
38 | ACAGACGAAGGAGCCGCAAAGAAGTTATTAAGGGATGATTAATCCCTCAATTTAAATATCTCTCACTTATTTAAA | 0.0965 | – | –

Row | Sequence | cleaved RNA product abundance [1] | cleaved RNA product abundance [2] | cleaved RNA product abundance [3]
39 | ACAGACGAAGGAGCCGCAAAGAAGTTATTAAGGGATGATTAATCCCTGAATATAAATATCTCTCACTTATTTAAA | 0.458 | – | –
40 | ACAGACGAAGGAGCCGCAAAGAAGTTATTAAGGGATGATTAATCCCTTAATATAAATATCTCTCACTTATTTAAA | 0.554 | – | –
41 | ACAGACGAAGGAGCCGCAAAGAAGTTATTAAGGGATGATTAATCCTTCAATATAAATATCTCTCACTTATTTAAA | 0.469 | 0.306 | –
42 | ACAGACGAAGGAGCCGCAAAGAAGTTATTAAGGGATGATTAATGCCTCAATATAAATATCTCTCACTTATTTAAA | – | 0.117 | –
43 | ACAGACGAAGGAGCCGCAAAGAAGTTATTAAGGGATGATTAATTCCTCAATATAAATATCTCTCACTTATTTAAA | – | 0.271 | –
44 | ACAGACGAAGGAGCCGCAAAGAAGTTATTAAGGGATGATTTATCCCTCAATATAAATATCTCTCACTTATTTAAA | 0.771 | – | –
45 | ACAGACGAAGGAGCCGCAAAGAAGTTATTAAGGGATGCACAATCCCTCAATATAAATATCTCTCACTTATTTAAA | 0.547 | – | –
46 | ACAGACGAAGGAGCCGCAAAGAAGTTATTAAGGGATGCATAAGCCCTCAATATAAATATCTCTCACTTATTTAAA | 0.732 | – | –
47 | ACAGACGAAGGAGCCGCAAAGAAGTTATTAAGGGATGCATAATACCTCAATATAAATATCTCTCACTTATTTAAA | 0.141 | 0.129 | –
48 | ACAGACGAAGGAGCCGCAAAGAAGTTATTAAGGGATGCATAATCACTCAATATAAATATCTCTCACTTATTTAAA | 0.109 | 0.0901 | –
49 | ACAGACGAAGGAGCCGCAAAGAAGTTATTAAGGGATGCATAATCCCACAATATAAATATCTCTCACTTATTTAAA | 0.204 | – | –
50 | ACAGACGAAGGAGCCGCAAAGAAGTTATTAAGGGATGCATAATCCCTAAATATAAATATCTCTCACTTATTTAAA | 0.76 | – | –
51 | ACAGACGAAGGAGCCGCAAAGAAGTTATTAAGGGATGCATAATCCCTCAATAAAAATATCTCTCACTTATTTAAA | 0.139 | – | –
52 | ACAGACGAAGGAGCCGCAAAGAAGTTATTAAGGGATGCATAATCCCTCAATATAAACATCTCTCACTTATTTAAA | 0.545 | – | –
53 | ACAGACGAAGGAGCCGCAAAGAAGTTATTAAGGGATGCATAATCCCTCAATATAAATAGCTCTCACTTATTTAAA | 0.45 | – | –
54 | ACAGACGAAGGAGCCGCAAAGAAGTTATTAAGGGATGCATAATCCCTCAATATAAATATCTCTCACTTATTTAAA | 0.844 | 0.856 | 1.15
55 | ACAGACGAAGGAGCCGCAAAGAAGTTATTAAGGGATGCATAATCCCTCAATTTAAATATCTCTCACTTATTTAAA | – | 0.177 | –
56 | ACAGACGAAGGAGCCGCAAAGAAGTTATTAAGGGATGCATAATCCCTCACTATAAATATCTCTCACTTATTTAAA | 0.233 | – | –
